# Reference: US6984373B2, “Fibrin binding moieties useful as imaging agents” (Dyax Corp., priority 2000, dated 2006)
# * marks the point of attachment. HYNIC = NNc1ccc(C(=O)*)cn1
# Tested on: human fibrin gel
# Test: Gamma camera imaging of fibrin clot in rabbit femoral artery with 99mTc-labeled peptide
# Type: in vivo
# Conditions: tricine coligand
# Method: Preliminary imaging experiments were performed with ^99mTc-labeled DX-328 using tricine as a coligand. A human fibrin gel was formed around a small wire placed in the femoral artery of a rabbit. The radiolabeled imaging agent was injected into the ear vein of the rabbit, and images were taken using a gamma camera.
# The intensity of radioactivity in the pulmonary region is due to circulating imaging agent that has not yet cleared. By increasing the time between injection and imaging, the background in the pulmonary region and elsewhere should be reduced as the unbound imaging agent clears through the kidneys. Alternatively, the same effect could be achieved by decreasing the clearance time of the imaging agent. This could be accomplished by using EDDA as a coligand instead of tricine.
substance,measurement,setting,value
"Ac-WQPCPWESWTFCWDPGGGK(HYNIC)-NH2 (not fully specified (bridges); cysteine pairing not given here; also: 99mTc/tricine complex) [DX-328, HYNIC-labeled peptide, used 99mTc-labeled with tricine coligand]",route of excretion of agent unbound to the clot,rabbit,renally excreted
same,visualisation of clot in left thigh versus clot-free right thigh,"ear vein injection, human fibrin gel on wire in femoral artery",can clearly be seen
